The experiment concerns the target CD20 on Daudi target cells (human) (UniProt P11836). The experiment in a line: cell-based or functional assay.
Sequence of UniProt P11836 (P11836 whole entry): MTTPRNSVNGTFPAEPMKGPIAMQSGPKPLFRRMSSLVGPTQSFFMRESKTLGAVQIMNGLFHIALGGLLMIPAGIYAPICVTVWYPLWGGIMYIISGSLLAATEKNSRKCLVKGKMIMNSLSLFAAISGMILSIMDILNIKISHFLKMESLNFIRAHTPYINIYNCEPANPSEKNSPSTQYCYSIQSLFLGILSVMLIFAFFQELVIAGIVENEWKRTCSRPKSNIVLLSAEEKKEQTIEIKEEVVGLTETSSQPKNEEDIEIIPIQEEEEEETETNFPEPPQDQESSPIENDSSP

Regarding Rituxan™ (antibody), the ADCC, Cr release from Daudi target cells was 10 to 15%.

For the origin of these results see US20050191342A1.
